Where no end group is shown, it is not given here.

The record followed here is patent publication US20080113383A1 (FIBRO GEN, published 2008).

The target in the first experiment is EGLN2. Kind of experiment: cell-based or functional assay.
DTDLDSEALAPYIPADDDFQ (not fully specified; printed as DTDLDSEALApYIPADDDFQ) [DTDLDSEALApYIPADDDFQ]: the “Activity (%)*” value was 23.8%.

As for DTDLDLEAFAPYIPADDDFQ [DTDLDLEAFApYIPADDDFQ], the “Activity (%)*” value came to 73.9%.

DTDLDAEALAPYIPADDDFQ [DTDLDAEALApYIPADDDFQ]: the “Activity (%)*” value was 46.9%.

In the case of DTDLDLEARAPYIPADDDFQ [DTDLDLEARApYIPADDDFQ], the “Activity (%)*” value worked out at 78.6%.

Turning to DTDLDPEALAPYIPADDDFQ (not fully specified; printed as DTDLDPEALApYIPADDDFQ) [DTDLDPEALApYIPADDDFQ], the “Activity (%)*” value was 37.4%.

Turning to DTDLDLEAHAPYIPADDDFQ [DTDLDLEAHApYIPADDDFQ], the “Activity (%)*” value amounted to 32.3%.

Take DTDLDMEALAPYIPADDDFQ (not fully specified; printed as DTDLDMEALApYIPADDDFQ) [DTDLDMEALApYIPADDDFQ]: the “Activity (%)*” value worked out at 79.1%.

Consider DTDLDLEMLHPYIPMDDDFQ (not fully specified; printed as DTDLDLEMLHpYIPMDDDFQ) [DTDLDLEMLHpYIPMDDDFQ], for which the “Activity (%)*” value was determined as 3.47%.

On to DTDLDVEAFAPYIPADDDFQ (not fully specified; printed as DTDLDVEAFApYIPADDDFQ) [DTDLDVEAFApYIPADDDFQ], for which the “Activity (%)*” value was determined as 37.5%.

Take DTDLDLEAMAPYIPADDDFQ [DTDLDLEAMApYIPADDDFQ]: the “Activity (%)*” value is 55.8%.

For the molecule DTDLDDEALAPYIPADDDFQ [DTDLDDEALApYIPADDDFQ], the “Activity (%)*” value amounted to 42.8%.

As for DTDLDLEAAAPYIPADDDFQ [DTDLDLEAAApYIPADDDFQ], the “Activity (%)*” value stood at 30.9%.

Regarding DTDLDLEMLLPYIPMDDDFQ (not fully specified; printed as DTDLDLEMLLpYIPMDDDFQ) [DTDLDLEMLLpYIPMDDDFQ], the “Activity (%)*” value was -0.42%.

Consider DTDLDLEMLFPYIPMDDDFQ (not fully specified; printed as DTDLDLEMLFpYIPMDDDFQ) [DTDLDLEMLFpYIPMDDDFQ], for which the “Activity (%)*” value came to 0.63%.

In the case of DTDLDWEALAPYIPADDDFQ (not fully specified; printed as DTDLDWEALApYIPADDDFQ) [DTDLDWEALApYIPADDDFQ], the “Activity (%)*” value was determined as 138%.

In the case of DTDLDEEALAPYIPADDDFQ [DTDLDEEALApYIPADDDFQ], the “Activity (%)*” value is 44.3%.

As for DTDLDLEMLMPYIPMDDDFQ (not fully specified; printed as DTDLDLEMLMpYIPMDDDFQ) [DTDLDLEMLMpYIPMDDDFQ], the “Activity (%)*” value is 27.8%.

In the case of DTDLDLEANAPYIPADDDFQ [DTDLDLEANApYIPADDDFQ], the “Activity (%)*” value was 37.7%.

Another experiment concerns the target EGLN1. The experiment in a line: cell-based or functional assay.
For DTDLDSEALAPYIPADDDFQ (not fully specified; printed as DTDLDSEALApYIPADDDFQ) [DTDLDSEALApYIPADDDFQ], the “Activity (%)*” value turned out to be 34.7%.

For DTDLDLEAFAPYIPADDDFQ [DTDLDLEAFApYIPADDDFQ], the “Activity (%)*” value turned out to be 82.2%.

As for DTDLDAEALAPYIPADDDFQ [DTDLDAEALApYIPADDDFQ], the “Activity (%)*” value stood at 51%.

For DTDLDLEARAPYIPADDDFQ [DTDLDLEARApYIPADDDFQ], the “Activity (%)*” value was determined as 79%.

For the molecule DTDLDPEALAPYIPADDDFQ (not fully specified; printed as DTDLDPEALApYIPADDDFQ) [DTDLDPEALApYIPADDDFQ], the “Activity (%)*” value turned out to be 40.8%.

Turning to DTDLDLEAHAPYIPADDDFQ [DTDLDLEAHApYIPADDDFQ], the “Activity (%)*” value was 34%.

In the case of DTDLDMEALAPYIPADDDFQ (not fully specified; printed as DTDLDMEALApYIPADDDFQ) [DTDLDMEALApYIPADDDFQ], the “Activity (%)*” value worked out at 86.4%.

For DTDLDLEMLHPYIPMDDDFQ (not fully specified; printed as DTDLDLEMLHpYIPMDDDFQ) [DTDLDLEMLHpYIPMDDDFQ], the “Activity (%)*” value was found to be 2.41%.

For DTDLDVEAFAPYIPADDDFQ (not fully specified; printed as DTDLDVEAFApYIPADDDFQ) [DTDLDVEAFApYIPADDDFQ], the “Activity (%)*” value came out at 34.1%.

As to DTDLDLEAMAPYIPADDDFQ [DTDLDLEAMApYIPADDDFQ], the “Activity (%)*” value was 63.7%.

As for DTDLDDEALAPYIPADDDFQ [DTDLDDEALApYIPADDDFQ], the “Activity (%)*” value was 51%.

As to DTDLDLEAAAPYIPADDDFQ [DTDLDLEAAApYIPADDDFQ], the “Activity (%)*” value was determined as 36.1%.

For DTDLDLEMLLPYIPMDDDFQ (not fully specified; printed as DTDLDLEMLLpYIPMDDDFQ) [DTDLDLEMLLpYIPMDDDFQ], the “Activity (%)*” value worked out at 2.36%.

In the case of DTDLDLEMLFPYIPMDDDFQ (not fully specified; printed as DTDLDLEMLFpYIPMDDDFQ) [DTDLDLEMLFpYIPMDDDFQ], the “Activity (%)*” value was 4.16%.

For the molecule DTDLDWEALAPYIPADDDFQ (not fully specified; printed as DTDLDWEALApYIPADDDFQ) [DTDLDWEALApYIPADDDFQ], the “Activity (%)*” value came out at 108%.

As for DTDLDEEALAPYIPADDDFQ [DTDLDEEALApYIPADDDFQ], the “Activity (%)*” value came out at 49.6%.

On to DTDLDLEMLMPYIPMDDDFQ (not fully specified; printed as DTDLDLEMLMpYIPMDDDFQ) [DTDLDLEMLMpYIPMDDDFQ], for which the “Activity (%)*” value amounted to 26.4%.

As for DTDLDLEANAPYIPADDDFQ [DTDLDLEANApYIPADDDFQ], the “Activity (%)*” value was 49.2%.

A further experiment concerns the target EGLN3. The experiment in a line: cell-based or functional assay.
In the case of DTDLDSEALAPYIPADDDFQ (not fully specified; printed as DTDLDSEALApYIPADDDFQ) [DTDLDSEALApYIPADDDFQ], the “Activity (%)*” value amounted to 61.3%.

For the molecule DTDLDLEAFAPYIPADDDFQ [DTDLDLEAFApYIPADDDFQ], the “Activity (%)*” value stood at 76.4%.

As to DTDLDAEALAPYIPADDDFQ [DTDLDAEALApYIPADDDFQ], the “Activity (%)*” value was 87.2%.

In the case of DTDLDLEARAPYIPADDDFQ [DTDLDLEARApYIPADDDFQ], the “Activity (%)*” value was 68.6%.

DTDLDPEALAPYIPADDDFQ (not fully specified; printed as DTDLDPEALApYIPADDDFQ) [DTDLDPEALApYIPADDDFQ]: the “Activity (%)*” value worked out at 76.6%.

As for DTDLDLEAHAPYIPADDDFQ [DTDLDLEAHApYIPADDDFQ], the “Activity (%)*” value amounted to 27%.

DTDLDMEALAPYIPADDDFQ (not fully specified; printed as DTDLDMEALApYIPADDDFQ) [DTDLDMEALApYIPADDDFQ]: the “Activity (%)*” value is 128%.

Turning to DTDLDLEMLHPYIPMDDDFQ (not fully specified; printed as DTDLDLEMLHpYIPMDDDFQ) [DTDLDLEMLHpYIPMDDDFQ], the “Activity (%)*” value is 68.2%.

As to DTDLDVEAFAPYIPADDDFQ (not fully specified; printed as DTDLDVEAFApYIPADDDFQ) [DTDLDVEAFApYIPADDDFQ], the “Activity (%)*” value stood at 44.2%.

On to DTDLDLEAMAPYIPADDDFQ [DTDLDLEAMApYIPADDDFQ], for which the “Activity (%)*” value is 94.3%.

On to DTDLDDEALAPYIPADDDFQ [DTDLDDEALApYIPADDDFQ], for which the “Activity (%)*” value amounted to 65%.

As for DTDLDLEAAAPYIPADDDFQ [DTDLDLEAAApYIPADDDFQ], the “Activity (%)*” value was found to be 30.2%.

In the case of DTDLDLEMLLPYIPMDDDFQ (not fully specified; printed as DTDLDLEMLLpYIPMDDDFQ) [DTDLDLEMLLpYIPMDDDFQ], the “Activity (%)*” value was 46.2%.

With DTDLDLEMLFPYIPMDDDFQ (not fully specified; printed as DTDLDLEMLFpYIPMDDDFQ) [DTDLDLEMLFpYIPMDDDFQ], the “Activity (%)*” value worked out at 59.3%.

DTDLDWEALAPYIPADDDFQ (not fully specified; printed as DTDLDWEALApYIPADDDFQ) [DTDLDWEALApYIPADDDFQ]: the “Activity (%)*” value turned out to be 120%.

As to DTDLDEEALAPYIPADDDFQ [DTDLDEEALApYIPADDDFQ], the “Activity (%)*” value amounted to 80.8%.

For the molecule DTDLDLEMLMPYIPMDDDFQ (not fully specified; printed as DTDLDLEMLMpYIPMDDDFQ) [DTDLDLEMLMpYIPMDDDFQ], the “Activity (%)*” value came to 58.9%.

In the case of DTDLDLEANAPYIPADDDFQ [DTDLDLEANApYIPADDDFQ], the “Activity (%)*” value came to 42.5%.
